Entries after “also recorded” stand apart in the source; their conditions may differ. Where two headings read alike, the source gives them in different places.
B1: NHH: bifunctional chimeric protein NIF-(Gly)5-hirugen, 274 amino acids, of Chinese patent application 031011551; control protein (protein)
chain: NEHNLRCPQNGTEMPGFNDSIRLQFLAMHNGYRSKLALGHISITEESESDDDDDFGFLPDFAPRASKMRYLEYDCEAEKSAYMSARNCSDSSSPPEGYDENKYIFENSNNISEAALKAMISWAKEAFNLNKTKEGEGVLYRSNHDISNFANLAWDAREKFGCAVVNCPLGEIDDETNHDGETYATTIHVVCHYPKINKTEGQPIYKVGTPCDDCSEYTKKADNTTSADPVCIPDDGVCFIGSKADYDSKEFYRFRELGGGGGNGDFEEIPEEYL
B2: NIF: Neutrophil inhibitory factor, 257 amino acids; prepared by Chongqing Fujin Biology and Medicine Company (protein)
chain: NEHNLRCPQNGTEMPGFNDSIRLQFLAMHNGYRSKLALGHISITEESESDDDDDFGFLPDFAPRASKMRYLEYDCEAEKSAYMSARNCSDSSSPPEGYDENKYIFENSNNISEAALKAMISWAKEAFNLNKTKEGEGVLYRSNHDISNFANLAWDAREKFGCAVVNCPLGEIDDETNHDGETYATTIHVVCHYPKINKTEGQPIYKVGTPCDDCSEYTKKADNTTSADPVCIPDDGVCFIGSKADYDSKEFYRFREL

Tests used:
leukocyte adhesion = assay: anti-leukocyte adhesion activity, in vitro comparative analysis; format: cell-based; settings: in vitro
[1] = tested on: cerebral ischemia in rats subjected to middle cerebral artery occlusion; format: in vivo, Wistar rats; settings: for behavioral score / pathological section of brain (cerebral cortex nerve cells): 2 mg/kg bid caudal vein; for behavioral score: full score 11; for pathological section of brain (cerebral cortex nerve cells): HE, compared with model group
[2] = tested on: experimental cerebral hematoma in rats; assay: effects on experimental cerebral hematoma in rats; format: in vivo, SD rats; design: key to behavioral score: neurologic defect score, full score 11; higher = more severe disorder; settings: for behavioral score / Brain water content (%): 2 mg/kg bid caudal vein; for behavioral score: full score 11; for Brain water content (%): dry and wet method; for degree of pathological change, remaining cases: 2-3 cases per group
Protocol: SD rats were randomly divided into 4 groups (8 animals per group), including model group, NHH group, NIF group and TNHH group. The rats in each group were anesthetized by chloral hydrate, and then 0.1 ml blood was collected by amputation of tail. The rats were fixed in a stereotaxic apparatus. Median incision of scalp was performed and the periosteum was cut open to expose bregma. Subsequently, a small hole with a diameter of 1 mm was perforated for needle insertion of microsyringe fixed on the stereotaxic apparatus with insertion depth of 5.8 mm (i.e to the position of caudate nucleus) at the site which was 1 mm rearward to the bregma and 3 mm left to the midline, and then 0.1 ml autoblood was injected slowly. Neurological functional defect score was immediately evaluated based on the evaluation criterion after the animal got conscious. The animal with behavior score less than 11 was selected in this study. Behavior score evaluation was continuously carried out after the establishment of model till the end of the experiment.
The neurologic function defect score was evaluated at 5 time points of 4 h, 12 h, 24 h, 48 h and 72 h after the model establishment. Changes of brain water content and histopathological observation were performed at 72 h after the model establishment on sacrificed rats.
Corresponding medicaments (2 mg/kg, bid) were administered through the caudal vein to animals with administration volume of 1 ml/100 g in each group after model animal was successfully established (according to the score less than 11 based on the behavior score evaluation), while the model group received physiological saline in the corresponding volume.
The brain was taken out immediately after the sacrifice of animals, and then […] ectocinerea (cortex was removed) at the edge of haematoma was collected. The brain water content was determined using dry and wet method based on the following formula: Brain water content=(wet weight−dry weight)/wet weight×100%
The brain was immediately taken out by decollation at selected time points, and it was sliced up to be 2 mm thick along the coronal section and then fixed in 10% formaldehyde. The slices were stained by regular HE and mounted. Then the pathological changes occurred in pathological region and the neighboring brain tissues were observed.
Evaluation was performed at the time of 4 h, 12 h, 24 h, 48 h and 72 h after surgery. The method was described as follows:
The flection of forelimbs was observed by lifting the rat by its tail. If the forelimbs symmetrically extended toward the floor, the score was 0. While if wrist flection, or elbow inflection, or internal rotation of shoulder, or both elbow inflection and internal rotation of shoulder occurred to forelimbs of the rat on the opposite side of the surgery part, it was evaluated as scores of 1, 2, 3 and 4, respectively.
The animal was placed on flat floor, and then both shoulders were pushed to move towards the opposite side to examine the resistance. If the resistances on both sides were equal and forceful, it was evaluated as 0. While if the resistance decreased slightly, mildly or severely when pushed to the opposite side of the surgery part, it was evaluated as 1, 2 or 3, respectively.
Both forelimbs of the animal were placed on a metal mesh to observe the muscular tension. The rat with equal and forceful muscular tension of both forelimbs was evaluated as 0. In the same way, the rat was evaluated as 1, 2 or 3, respectively with the reduction of muscular tension on the opposite side of the surgery part mentioned above.
The animal tended to keep turning around to one side was evaluated as 1. Based on the evaluation criterion (with full score of 11), the higher the score was evaluated, the more severe the behavior disorder was.

thrombin = thrombin (Homo sapiens, UniProt P00734); assay: antithrombin activity, in vitro comparative analysis; format: biochemical; design: TNHH-G15/n3 and TNHH have the same antithrombin activity
[3] = 2 mg/kg bid, brain pathological section

Row | Molecule | anti-leukocyte adhesion activity (leukocyte adhesion) | behavioral score ([1]; 4 h) | behavioral score ([1]; 8 h) | behavioral score ([1]; 24 h) | behavioral score ([1]; 48 h) | behavioral score ([1]; 72 h) | pathological section of brain (cerebral cortex nerve cells) [1] | Cerebral infarction volume (%) ([1]; 72 h) | behavioral score ([2]; 4 h) | behavioral score ([2]; 12 h) | behavioral score ([2]; 24 h) | behavioral score ([2]; 48 h) | Brain water content (%) ([2]; 72 h) | behavioral score ([2]; 72 h) | degree of pathological change, remaining cases [2, 3] | degree of pathological change, most cases ([2]; 2 mg/kg bid, brain pathological section, model group mostly ++→+++) | antithrombin activity (thrombin)
1 | B1 | 650 Unit/mg | 8.2 ± 1.7 | 8.2 ± 1.7 | 8.0 ± 1.4 | 6.5 ± 1.4 | 5.7 ± 1.2 | less pathological changes; also recorded: less regular arrangements, a portion of deeply stained nucleus, and some cytoplasmic shrinkage or disappearance | 25.2 ± 5.2 % | 2.14 ± 0.69 | 1.86 ± 0.90 | 2.43 ± 1.00 | 2.57 ± 0.13 | 78.66 ± 0.55 % | 3.57 ± 1.72 | +→++ | – | –
2 | B2 | 750 Unit/mg | 6.2 ± 0.8 | 6.5 ± 1.2 | 5.5 ± 0.5 | 5.5 ± 0.4 | 5.5 ± 0.5 | less pathological changes; also recorded: less regular arrangements, a portion of deeply stained nucleus, and some cytoplasmic shrinkage or disappearance | 24.9 ± 9.6 % | 1.86 ± 0.90 | 2.14 ± 0.90 | 2.43 ± 0.53 | 3.14 ± 0.90 | 79.36 ± 0.47 % | 4.14 ± 1.68 | +→++ | ±→+ | None
